Data published in US9353421, “Aptamers that are specific for immunoglobulin-binding cell wall proteins” (Helmholtz-Zentrum für Umweltforschung GmbH-UFZ).

Experiments:
[1] = biological target: T1, Protein A (native, biotinylated) (Staphylococcus aureus, UniProt P02976 P02976:37-485); assay: pulldown; magnetic bead binding; negative result; 10 mM MgCl2, 21 C; settings: tags: biotin, immobilized on streptavidin Dynabeads M-280; Sigma-Aldrich P2165; label: fluorescein
Method: (§1) The binding experiments were carried out under the SELEX conditions. 2.5-3 ×10^7 target-modified magnetic beads and ~55 pmol of fluorescein-labeled aptamer ssDNA in binding buffer (100 mM NaCl, 20 mM Tris-HCl, pH 7.6, 10 mM MgCl_2, 5 mM KCl, 1 mM CaCl_2) were employed for each experiment. The target-modified magnetic beads were prepared as a preliminary to the binding experiments, wherein Dynabeads® M-280 Streptavidin (Invitrogen, UK) were used in order to immobilize native, biotinylated protein A from *Staphylococcus aureus* (P2165, Sigma-Aldrich, Germany). Before each binding reaction the target-modified magnetic beads were washed several times in binding buffer and the aptamer ssDNA was thermally equilibrated by incubation at 90° C. for 8 min, on ice for 10 min and then converted to RT for ~5 min. The prepared aptamer ssDNA and the washed target-modified magnetic beads were then brought together for binding and incubated for 30 min at 21° C., while shaking. The non-bound ssDNA was removed and the binding complexes were washed several times in binding buffer. Thereafter, the target-bound ssDNA was eluted by means of heat by incubation of the binding complexes in binding buffer at 95° C. for 10 min, while shaking. […] The amount of ssDNA eluted could be quantified on the basis of the fluorescein labeling of the aptamer ssDNA and by means of a calibration curve. […]

[2] = biological target: T1, Protein A (native, biotinylated); assay: pulldown; magnetic bead binding; complete loss of binding; 10 mM MgCl2, 21 C; settings: tags: biotin, immobilized on streptavidin Dynabeads M-280; Sigma-Aldrich P2165; label: fluorescein
Method: as §1

Protein A (native) = Protein A (native) (UniProt P02976 P02976:37-485); assay: SPR; steady-state avidity (bivalent analyte); 100 mM NaCl, 20 mM Tris-HCl pH 7.6, 10 mM MgCl2, 5 mM KCl, 1 mM CaCl2, 0.005% SP20; settings: tags: Sigma-Aldrich P3838; label: 3'-biotin
Sequence of Protein A (native) (P02976 37-485, one chain of several): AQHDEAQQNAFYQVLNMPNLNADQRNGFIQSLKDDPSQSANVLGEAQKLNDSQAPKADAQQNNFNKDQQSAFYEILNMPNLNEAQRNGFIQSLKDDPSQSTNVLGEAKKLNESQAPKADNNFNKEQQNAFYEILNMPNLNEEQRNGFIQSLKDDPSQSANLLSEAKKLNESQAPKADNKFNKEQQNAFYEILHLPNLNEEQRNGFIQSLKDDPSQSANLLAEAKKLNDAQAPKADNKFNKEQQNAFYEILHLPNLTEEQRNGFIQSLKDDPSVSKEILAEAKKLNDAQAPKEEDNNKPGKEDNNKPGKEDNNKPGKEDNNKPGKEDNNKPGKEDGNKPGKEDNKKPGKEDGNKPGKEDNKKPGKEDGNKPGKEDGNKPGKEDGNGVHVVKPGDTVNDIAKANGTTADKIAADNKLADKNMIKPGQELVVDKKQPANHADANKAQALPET
Source text: (§2) These changes are emitted as a measurable signal, expressed in resonance units (RU), and are proportional to the amount of target bound on the sensor surface. In the experiments presented here, non-specific ssDNA (SELEX library, 3'-biotinylated) was immobilized in the reference cell and ssDNA of the aptamer PA#2/8 (3'-biotinylated) was immobilized in the measurement cell. The target solution, comprising recombinant protein A (P7837, Sigma-Aldrich, Germany) or native protein A (P3838, Sigma-Aldrich, Germany) in binding buffer (100 mM NaCl, 20 mM Tris-HCl, pH 7.6, 10 mM MgCl_2, 5 mM KCl, 1 mM CaCl_2) with 0.005% SP20, was passed over the prepared sensor surfaces at a flow rate of 10 µl/min. […] The sensorgrams (FIG. 6, 8) show the double-referenced signal curve (measurement cell minus reference cell and buffer reference) during the binding and dissociation phase at different target concentrations in a range of 10 nM-5,000 nM protein A. During such a measurement series the 1,000 nM concentration of protein A was measured 3 times as a control. […]
(§3) From the binding data at the end of each binding phase with the different protein A concentrations a saturation curve was plotted (FIG. 7, 9) and the steady state affinity of the aptamer PA#2/8 for protein A was calculated from this. […]

Protein A (recombinant) = Protein A (recombinant) (UniProt P02976 P02976:37-485); assay: as above; settings: tags: Sigma-Aldrich P7837; label: 3'-biotin
Sequence of Protein A (recombinant) (P02976 37-485, one chain of several): as above
Source text: as §2, §3

[3] = biological target: T1, Protein A (native, biotinylated); assay: pulldown; magnetic bead binding; retained and even improved vs full length; 10 mM MgCl2, 21 C; settings: tags: biotin, immobilized on streptavidin Dynabeads M-280; Sigma-Aldrich P2165; label: fluorescein
Method: as §1

T1 sequence (P02976 37-485, one chain of several): as above

**Q.** Does AGCAACATGAGGGGGATAGAGGGGGTGGGTTCTCTCGGCT (ssDNA) [PA#2/8CR40] bind [1]?
**A.** no binding

B1: PA#2/8 [A19-76] (ssDNA)
DNA: AGCAACATGAGGGGGATAGAGGGGGTGGGTTCTCTCGGCTACAATCGTAATCAGTTAG
**Q.** Does B1 bind [2]?
**A.** no binding

B2: PA#2/8 (3'-biotin) (ssDNA)
DNA: ATACCAGCTTATTCAATTAGCAACATGAGGGGGATAGAGGGGGTGGGTTCTCTCGGCTACAATCGTAATCAGTTAG
**Q.** What does the source list for B2?
**A.** Kd (Protein A (native)): 75.3 nM; Kd (Protein A (recombinant)): 188 nM

B3: PA#2/8 [A1-58] (ssDNA)
DNA: ATACCAGCTTATTCAATTAGCAACATGAGGGGGATAGAGGGGGTGGGTTCTCTCGGCT
**Q.** Does B3 bind [3]?
**A.** binds
